Results: US20220106596A1, “A METHOD OF GENE EDITING” (University of Washington, priority 2019, published 2022)

B1: Sh42: shRNA cloned in pTRIPZ (Dharmacon), target gene 12A5, MEIS2; SEQ ID NO: 107 (nucleic acid)
chain: GTTGACAGTGAGCGCGGACTTTATCAGAAACTCAAATAGTGAAGCCACAGATGTATTTGAGTTTCTGATAAAGTCCTTGCCTACTGCCTC
B2: SH63: shRNA cloned in pTRIPZ (Dharmacon), target gene BLM; SEQ ID NO: 112 (nucleic acid)
chain: GTTGACAGTGAGCGAAGGTTATCTGTGCTACAATTGTAGTGAAGCCACAGATGTACAATTGTAGCACAGATAACCTGTGCCTACTGCCTC
B3: SH61: shRNA cloned in pTRIPZ (Dharmacon), target gene BLM; SEQ ID NO: 110 (nucleic acid)
chain: GTTGACAGTGAGCGAAACCTTCCTATGATATTGATATAGTGAAGCCACAGATGTATATCAATATCATAGGAAGGTTGTGCCTACTGCCTC
B4: SH7: shRNA cloned in pTRIPZ (Dharmacon), target gene 1B3, POLE4; SEQ ID NO: 101 (nucleic acid)
chain: GTTGACAGTGAGCGCGGAGAGACTTGGATAATGCAATAGTGAAGCCACAGATGTATTGCATTATCCAAGTCTCTCCTTGCCTACTGCCTC
B5: SH79: shRNA cloned in pTRIPZ (Dharmacon), target gene POLA1; SEQ ID NO: 113 (nucleic acid)
chain: GTTGACAGTGAGCGCGCAGATCATGTGTGAGCTAAATAGTGAAGCCACAGATGTATTTAGCTCACACATGATCTGCATGCCTACTGCCTC
modifications: listed as DNA, chemistry not fully specified
B6: sh15: shRNA cloned in pTRIPZ (Dharmacon), target gene 2b3, pms2; SEQ ID NO: 103 (nucleic acid)
chain: GTTGACAGTGAGCGCCCGTAGTCACTGTATGGAATATAGTGAAGCCACAGATGTATATTCCATACAGTGACTACGGTTGCCTACTGCCTC
B7: Sh39: shRNA cloned in pTRIPZ (Dharmacon), target gene BLM; SEQ ID NO: 104 (nucleic acid)
chain: GTTGACAGTGAGCGTAAGCAGCGATGTGATTTGCATTAGTGAAGCCACAGATGTAATGCAAATCACATCGCTGCTTATGCCTACTGCCTC
B8: SH56: shRNA cloned in pTRIPZ (Dharmacon), target gene 12B12, ORC1L; SEQ ID NO: 108 (nucleic acid)
chain: GTTGACAGTGAGCGCGCCACGTTTCAACAGATATATTAGTGAAGCCACAGATGTAATATATCTGTTGAAACGTGGCTTGCCTACTGCCTC
B9: Sh40: shRNA cloned in pTRIPZ (Dharmacon), target gene RMI1/BLAP75; SEQ ID NO: 105 (nucleic acid)
chain: GTTGACAGTGAGCGTGATCTAGTTACAGCTGAAGCATAGTGAAGCCACAGATGTATGCTTCAGCTGTAACTAGATCATGCCTACTGCCTC
B10: Sh41: shRNA cloned in pTRIPZ (Dharmacon), target gene Topo III alpha; SEQ ID NO: 106 (nucleic acid)
chain: GTTGACAGTGAGCGTGGACATTTACTGGCTCATGATTAGTGAAGCCACAGATGTAATCATGAGCCAGTAAATGTCCATGCCTACTGCCTC
B11: SH60: shRNA cloned in pTRIPZ (Dharmacon), target gene BLM; SEQ ID NO: 109 (nucleic acid)
chain: GTTGACAGTGAGCGCGGAGTCTGCGTGCGAGGATTATAGTGAAGCCACAGATGTATAATCCTCGCACGCAGACTCCTTGCCTACTGCCTC
B12: SH9: shRNA cloned in pTRIPZ (Dharmacon), target gene 1B5, anapc5; SEQ ID NO: 102 (nucleic acid)
chain: GTTGACAGTGAGCGCGCGCATTATCTCAGCTACTTATAGTGAAGCCACAGATGTATAAGTAGCTGAGATAATGCGCTTGCCTACTGCCTC
B13: SH62: shRNA cloned in pTRIPZ (Dharmacon), target gene BLM; SEQ ID NO: 111 (nucleic acid)
chain: GTTGACAGTGAGCGCGGTGTCCATTACTTCAATATTTAGTGAAGCCACAGATGTAAATATTGAAGTAATGGACACCATGCCTACTGCCTC

Experiments:
[1] = system: HT-1080/neo/HPRT editing lines; test: neo gene editing (G418 selection) after shRNA inhibition of selected replication fork proteins; format: cell-based, human; details: shRNA induced 24 hours with doxycycline (1 μg/ml); AAV-HSN MOI 2×10^4
Description: (§1) To determine the effect of shRNA specific for selected replication fork proteins on gene editing, experiments were performed using the HT-1080/neo/HPRT editing lines. Each gene indicated in Table 8 below was inhibited with a shRNA (sequences provided in Table 7 below) expressed from a lentivirus vector.
(§2) HPRT and neo gene editing frequencies were measured by G418 or HAT selection and normalized to a cell that was not treated with a shRNA.
(§3) Cells were first transduced with a lentivirus expressing a shRNA specific for the targeted genes. 2×10^4 HT-1080 cells transduced with the specific shRNAs were then plated in 6-well plates on day 1, and the expression of the shRNA was induced for 24 hours with doxycycline (1 μg/ml). On day 2, cells were transduced with AAV-HSN or AAV-HPe3 at a MOI of 2×10^4. On day 4, the cells were treated with trypsin and 0.1% of the cells were replated without selection in 6-well plates to determine the number of colony forming units. The remainder of the cells were replated in 6-well plates for further analysis of gene editing frequency.
(§4) On day 5, neo gene correction experiments were performed by the addition of G418 (700 ug/ml) to the experimental plates. On day 16, plates were washed with PBS and the colonies were stained with Coomassie brilliant blue G. The percentage of neo gene correction was calculated as the number of G418-resistant CFU per total CFU for each original well. On day 6, HPRT gene correction experiments were performed by adding 1× HAT (hypoxanthine-aminopterin-thymidine medium) to the experimental plates. On day 16, plates were washed with PBS and the colonies were stained with Coomassie brilliant blue G. The percentage of HPRT gene correction was calculated as the number of HAT-resistant CFU per total CFU for each original well.

[2] = system: HT-1080/neo/HPRT editing lines; test: HPRT gene editing (HAT selection) after shRNA inhibition of selected replication fork proteins; format: cell-based, human; details: shRNA induced 24 hours with doxycycline (1 μg/ml); AAV-HPe3 MOI 2×10^4
Description: as §1, §2, §3, §4

| Molecule | G418 (neo) gene editing frequency normalized to a cell not treated with a shRNA [1] | HAT (HPRT) gene editing frequency normalized to a cell not treated with a shRNA [2] |
| --- | --- | --- |
| B1 | 1.26 | – |
| B2 | 1.99 | 0.92 |
| B3 | 2.64 | 2.82 |
| B4 | 1.57 | 8.24 |
| B5 | 1.24 | 2.46 |
| B6 | 3.88 | 17.59 |
| B7 | 1.67 | 3.8 |
| B8 | 2.07 | 2.11 |
| B9 | 1.37 | 1.61 |
| B10 | 1.42 | 1.66 |
| B11 | 2.08 | 1.38 |
| B12 | 2.81 | 29.10 |
| B13 | 2.28 | 2.34 |
